Measurements: patent US20060281899A1, “Mutants of biotin binding protein” (priority 2002, published 2006)

Key:
Isoelectric focusing = format: physicochemical
Procedure: (§1) The heat stability of the AVRs was studied by using an SDS-PAGE-based method (Bayer, E. A., Ehrlich-Rogozinski, S. and Wilchek, M. (1996) Electrophoresis 17, 1319-1324). In this method, each protein sample was divided into two fractions one of which was kept biotin-free and the other was supplemented with an excess of biotin. The samples were then mixed with denaturing SDS-PAGE sample buffer (containing β-mercaptoethanol) and incubated at a given temperature for 20 minutes. After heat treatment, the samples were subjected to SDS-PAGE and visualised by staining with Coomassie brilliant blue. The relative proportions of tetrameric and monomeric forms of the AVR proteins (with avidin as the control) were detected. A similar assay, with β-mercaptoethanol omitted from the sample buffer, was performed to examine the presence of intersubunit disulfide-bridges. Sensitivity to proteinase K was studied both in the absence and in the presence of biotin as described (Laitinen, O. H., Airenne, K. J., Marttila, A. T., Kulik, T., Porkka, E., Bayer, E. A., Wilchek, M. and Kulomaa, M. S. (1999) FEBS Lett. 461, 52-8). The isoelectric point of each AVR was determined by isoelectric focusing as previously reported (Marttila, A. T., Airenne, K. J., Laitinen, O. H., Kulik, T., Bayer, E. A., Wilchek, M. and Kulomaa, M. S. (1998) FEBS Lett. 441, 313-317). The glycosylation patterns of the AVR proteins were studied by treating the proteins with Endo Hf and PNGase F glycosidase according to the manufacturer's instructions (New England Biolabs, Mass., USA).

[1] = IAsys optical biosensor, AVR4/5 forms binding to 2-iminobiotin surface; conditions: for Kd: 20° C.
Procedure: The biotin-binding characteristics of the different avidins were studied using an IAsys optical biosensor at 20° C. The reversibility of binding and binding affinities to the 2-iminobiotin surface in 50 mM borate buffer (pH 9.5, 1 M NaCl) were measured as previously reported (Laitinen, O. H., Hytönen, V. P., Ahlroth, M. K., Pentikäinen, O. T., Gallagher, C., Nordlund, H. R., Ovod, V., Marttila, A. T., Porkka, E., Heino, S., Johnson, M. S., Airenne, K. J. & Kulomaa, M. S. (2002) Biochem. J. 363, 609-617).
Briefly, The 2-iminobiotin ligand was immobilized onto the carboxymethyldextran surface of a cuvette using N-hydroxysuccinimide activation. Binding of various concentrations of avidin or avidin mutants onto 2-iminobiotinylated surface were measured in a 50 mM borate buffer (pH 9.5) containing 1 M NaCl at 20° C. The iminobiotin cuvettes were regenerated with 20 mM HCl. The kinetic rate constants for association (kass) and dissociation (kdiss) were calculated using the Fast Fit program package (Affinity Sensors). The obtained rate constants were used to calculate Kd(rel) according to Kd=kdiss/kass. Equilibrium data obtained from measurements with different protein concentrations were used to calculate the dissociation constant Kd(eq).

[2] = IASyS optical biosensor, binding in a 2-iminobiotin cuvette; conditions: for Kd: 2-iminobiotin cuvette, 20.0° C.
Procedure: The biotin-binding characteristics of the AVR proteins were studied as previously described using the IASyS optical biosensor (Marttila, A. T., Airenne, K. J., Laitinen, O. H., Kulik, T., Bayer, E. A ., Wilchek, M. and Kulomaa, M. S. (1998) FEBS Lett. 441, 313-317; Laitinen, O. H., Airenne, K. J., Marttila, A. T., Kulik, T., Porkka, E., Bayer, E. A., Wilchek, M. and Kulomaa, M. S. (1999) FEBS Lett. 461, 52-8). Affinities were measured for 2-iminobiotin or biotin at 20.0° C. using a stirring power of 100%. Briefly, the protein under study in biotin-free buffer was allowed to bind to the biotin-coated surface of the IASyS cuvette. As a negative control, the protein under study was saturated with excess biotin prior to (and was also maintained under biotin excess upon) addition to the cuvette. Under these conditions, residual binding to the biotin surface of the cuvette could be regarded as unspecific, and was used as a measure of baseline variation. Binding equilibrium in the experimental cuvette was considered to be attained after no binding was detected as compared to negative control.
The actual dissociation constants (Kd) were calculated for the AVRs according to the kass and kdiss rates measured in a separate assay in different protein concentrations (varying between 10 μM and 100 pM) (Table 4 and FIG. 6). The binding seemed to follow two-order or even more complex kinetics. However, the first 1000 seconds of the binding fitted considerably well to the bi-phasic curve. All measured dissociation rate constants (kdiss) followed the first-order kinetics. Because of the extremely high binding, affinities of the AVRs for biotin could not be determined except for AVR1, AVR2 and AVR7. Binding to 2-iminobiotin was determined only for AVR4/5, and it was similar to that of avidin. The lack of binding for the other AVRs was surprising, since most of them were purified using 2-iminobiotin agarose.

[3] = Non-reducing SDS-PAGE thermostability, oligomeric forms after boiling; format: physicochemical; conditions: boiled 20 minutes
Procedure: as §1

[4] = IAsys reversibility of binding to biotin, AVR4/5 forms; conditions: biotin cuvette
Procedure: The biotin-binding characteristics of the different avidins were studied using an IAsys optical biosensor at 20° C. […] H., Hytönen, V. P., Ahlroth, M. K., Pentikäinen, O. T., Gallagher, C., Nordlund, H. R., Ovod, V., Marttila, A. T., Porkka, E., Heino, S., Johnson, M. S., Airenne, K. J. & Kulomaa, M. S. (2002) Biochem. J. 363, 609-617).

[5] = 2-iminobiotin cuvette (as for Kd of this protein)

kass [1]: (7.0 ± 2.1) × 10^3 M^−1s^−1
kdiss [1]: (1.6 ± 1.4) × 10^−3 s^−1
Kd ([1]; 50 mM borate pH 9.5, 1 M NaCl, read-out: Kd detected from the equilibrium response data): 160 nM
Kd ([1]; pH 9.5, 1 M NaCl, read-out: Kd detected directly from the binding curves): 230 nM
kass [2, 5]: (1.8 ± 0.2) × 10^5 M^−1 s^−1
kdiss [2, 5]: (1.7 ± 0.7) × 10^−3 s^−1
Kd ([2]; read-out: Kd calculated directly from the binding curves): 91 nM
Kd ([2]; read-out: Kd calculated from the equilibrium response data): 570 nM
maximal binding (Rmax) ([2]; iminobiotin binding, highest concentration (2.2×10−6 M)): ca. 1000 arc seconds
Reversibility of binding to biotin [4]: 5 ± 3%
B1: AVR4/5: Recombinant chicken avidin-related protein 4/5 (AVR4 and AVR5 identical in coding sequence) (protein, UniProt P56734 25-150, looked up)
Avidin-related protein 4/5: ARKCSLTGKWTNNLGSIMTIRAVNSRGEFTGTYLTAVADNPGNITLSPLLGIQHKRASQPTFGFTVHWNFSESTTVFTGQCFIDRNGKEVLKTMWLLRSSVNDISYDWKATRVGYNNFTRLCTVEE
pI by isoelectric focusing (Isoelectric focusing): ≈ 10
Dimeric form, relative proportion [3]: 50 percentage
Monomeric form, relative proportion [3]: 50 percentage
